From US20220363758A1 (SORRENTO THERAPEUTICS, published 2022)
Changes are numbered by the printed parent chain. Names and notes keep the numbering of the source. Where two headings read alike, the source gives them in different places.

B1: Hu291 mAb (antibody, V domains shown)
VH: EVQLVQSGAEVKKPGASVKVSCKASGYTFISYTMHWVRQAPGQGLEWMGYINPRSGYTHYNQKLKDKATLTADKSASTAYMELSSLRSEDTAVYYCARSAYYDYDGFAYWGQGTLVTVSS
VL: DIQMTQSPSSLSASVGDRVTITCSASSSVSYMNWYQQKPGKAPKRLIYDTSKLASGVPSRFSGSGSGTDFTLTISSLQPEDFATYYCQQWSSNPPTFGGGTKVEIK
notes: also called Hum291 anti-CD3 mAb; HuM291 mAb
B2: CD38 A2-3H10m1 assembled with CD3-scFv tsm #5 (bispecific antibody, human IgG1, lambda, L234A L235A)
chain: EVQLVQSGAEVKKPGASVKVSCKASGYTFISYTMHWVRQAPGQGLEWMGYINPRSGYTHYNQKLKDRATLTADKSASTAYMELSSLRSEDTAVYYCARSAYYDYDGFAYWGQGTLVTVSSGGGGSGGGGSGGGGSGGGGSDIQMTQSPSSLSASVGDRVTITCSASSSVSYMNWYQQKPGKAPKRLIYDTSKLASGVPSRFSGSGSGTDFTLTISSLQPEDFATYYCQQWSSNPPTFGGGTKVEIKGGSGGDKTHTCPPCPAPEAAGGPSVFLFPPKPKDTLMISRTPEVTCVVVDVSHEDPEVKFNWYVDGVEVHNAKTKPREEQYNSTYRVVSVLTVLHQDWLNGKEYKCKVSNKALPAPIEKTISKAKGQPREPQVYTLPPSREEMTKNQVSLSCAVKGFYPSDIAVEWESNGQPENNYKTTPPVLDSDGSFFLVSKLTVDKSRWQQGNVFSCSVMHEALHNHYTQKSLSLSPGK
heavy: QVQLVESGGGLVKPGGSLRLSCAASGFTFSDDYMSWIRQAPGKGLEWVASVSNGRPTTYYADSVRGRFTISRDNAKNSLYLQMNSLRAEDTAVYYCAREGWSGEFTDWGQGTLVTVSSASTKGPSVFPLAPSSKSTSGGTAALGCLVKDYFPEPVTVSWNSGALTSGVHTFPAVLQSSGLYSLSSVVTVPSSSLGTQTYICNVNHKPSNTKVDKRVEPKSCDKTHTCPPCPAPEAAGGPSVFLFPPKPKDTLMISRTPEVTCVVVDVSHEDPEVKFNWYVDGVEVHNAKTKPREEQYNSTYRVVSVLTVLHQDWLNGKEYKCKVSNKALPAPIEKTISKAKGQPREPQVYTLPPSREEMTKNQVSLWCLVKGFYPSDIAVEWESNGQPENNYKTTPPVLDSDGSFFLYSKLTVDKSRWQQGNVFSCSVMHEALHNHYTQKSLSLSPGK
light: not shown
B3: CD38 A2-3H10m1 assembled with CD3-scFv tsm #2 (bispecific antibody, human IgG1, lambda, L234A L235A)
chain: B2 chain with I30V
heavy: B2 heavy
light: not shown
B4: CD38 A2-3H10m1 assembled with CD3-scFv tsm #3 (bispecific antibody, human IgG1, lambda, L234A L235A)
chain: B2 chain with M48I, R67K
heavy: B2 heavy
light: not shown
B5: CD38 A2-3H10m1 assembled with CD3-scFv tsm #4 (bispecific antibody, human IgG1, lambda, L234A L235A)
chain: B2 chain with I30V, M48I
heavy: B2 heavy
light: not shown
B6: CD38 A2-3H10m1 assembled with CD3-scFv tsm #6 (bispecific antibody, human IgG1, lambda, L234A L235A)
chain: B2 chain with I30V, R67K
heavy: B2 heavy
light: not shown
B7: CD38 A2-3H10m1 assembled with CD3-scFv tsm #7 (bispecific antibody, human IgG1, lambda, L234A L235A)
chain: B2 chain with R67K
heavy: B2 heavy
light: not shown
notes: tsm #7 carries the wild type HuM291 VH
B8: CD38 A2/CD3 (M48I/K67R) bispecific antibody (bispecific antibody, human IgG1, lambda, L234A L235A)
chain: B2 chain with M48I
heavy: B2 heavy with G100D, S102G
light: not shown
B9: CD38A2-3H10m1/CD3tsm #1-scFvg1LALA-knob-in-hole bispecific antibody (bispecific antibody, human IgG1, lambda, L234A L235A)
chain: B2 chain with M48I
heavy: B2 heavy
light: not shown
notes: Three chains: anti-CD3 scFv-Fc (hole, LALA), anti-CD38 heavy chain (knob, LALA) and anti-CD38 lambda light chain; also called CD38 A2-3H10m1 assembled with CD3-scFv tsm #1; CD38A2-3H10m1/CD3tsm #1 IgG-scFv
B10: CD38 D8-3A1/CD3 (M48I/K67R) bispecific antibody (bispecific antibody, human IgG1, lambda, L234A L235A)
chain: B2 chain with M48I
heavy: QVQLVESGGGVVQPGGSLRLSCAASGFNVRTKYVHWVRQAPGKGLEWVSGIYSDPYTSYAYSDSVKGRFTISRDMSKNTVYLQMNRLRAEDTAVYYCARETNTGFSNSWYLDFWGQGTLVTVSSASTKGPSVFPLAPSSKSTSGGTAALGCLVKDYFPEPVTVSWNSGALTSGVHTFPAVLQSSGLYSLSSVVTVPSSSLGTQTYICNVNHKPSNTKVDKRVEPKSCDKTHTCPPCPAPEAAGGPSVFLFPPKPKDTLMISRTPEVTCVVVDVSHEDPEVKFNWYVDGVEVHNAKTKPREEQYNSTYRVVSVLTVLHQDWLNGKEYKCKVSNKALPAPIEKTISKAKGQPREPQVYTLPPSREEMTKNQVSLWCLVKGFYPSDIAVEWESNGQPENNYKTTPPVLDSDGSFFLYSKLTVDKSRWQQGNVFSCSVMHEALHNHYTQKSLSLSPGK
light: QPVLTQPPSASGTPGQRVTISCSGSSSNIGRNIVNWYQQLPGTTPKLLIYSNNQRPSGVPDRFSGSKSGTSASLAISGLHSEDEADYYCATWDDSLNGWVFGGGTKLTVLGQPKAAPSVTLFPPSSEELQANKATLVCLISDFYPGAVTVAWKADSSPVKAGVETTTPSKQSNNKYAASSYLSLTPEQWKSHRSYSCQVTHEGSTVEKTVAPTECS
B11: CD38 D8-1B5/CD3 (M48I/K67R) bispecific antibody (bispecific antibody, human IgG1, lambda, L234A L235A)
chain: B2 chain with M48I
heavy: B10 heavy with F27L, V29A, K32N
light: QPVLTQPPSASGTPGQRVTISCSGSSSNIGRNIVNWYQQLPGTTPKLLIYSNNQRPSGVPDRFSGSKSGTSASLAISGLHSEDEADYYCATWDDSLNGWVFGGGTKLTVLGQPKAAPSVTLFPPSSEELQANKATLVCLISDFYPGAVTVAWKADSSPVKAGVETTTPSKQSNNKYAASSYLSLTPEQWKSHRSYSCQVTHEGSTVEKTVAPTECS
B12: CD38 D8-3E1/CD3 (M48I/K67R) bispecific antibody (bispecific antibody, human IgG1, lambda, L234A L235A)
chain: B2 chain with M48I
heavy: B10 heavy with G26K, F27L, R30S, T31P
light: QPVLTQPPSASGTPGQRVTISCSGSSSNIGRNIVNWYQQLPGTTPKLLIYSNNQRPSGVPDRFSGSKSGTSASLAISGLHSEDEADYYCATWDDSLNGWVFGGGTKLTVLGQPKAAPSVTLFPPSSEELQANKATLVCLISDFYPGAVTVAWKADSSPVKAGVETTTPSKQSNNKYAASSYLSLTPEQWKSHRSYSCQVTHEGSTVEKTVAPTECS
notes: also called CD38 D8-3E1/CD3 (M481/K67R)
B13: CD38 D8/CD3 (M48I/K67R) bispecific antibody (bispecific antibody, human IgG1, lambda, L234A L235A)
chain: B2 chain with M48I
heavy: B10 heavy with N28I, R30S, K32N
light: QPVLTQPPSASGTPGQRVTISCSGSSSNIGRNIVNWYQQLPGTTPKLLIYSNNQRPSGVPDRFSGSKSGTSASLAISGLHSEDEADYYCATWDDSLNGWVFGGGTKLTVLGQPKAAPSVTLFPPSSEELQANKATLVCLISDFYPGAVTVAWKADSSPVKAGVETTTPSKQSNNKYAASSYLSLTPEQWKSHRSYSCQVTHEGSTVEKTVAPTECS
B14: CD38 D8-3A1/CD3 mAb (antibody, V domains shown)
VH: QVQLVESGGGVVQPGGSLRLSCAASGFNVRTKYVHWVRQAPGKGLEWVSGIYSDPYTSYAYSDSVKGRFTISRDMSKNTVYLQMNRLRAEDTAVYYCARETNTGFSNSWYLDFWGQGTLVTVSS
VL: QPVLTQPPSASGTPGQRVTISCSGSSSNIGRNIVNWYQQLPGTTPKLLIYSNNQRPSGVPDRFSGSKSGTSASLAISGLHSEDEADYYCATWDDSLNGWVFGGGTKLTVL
notes: stands beside the row 'CD38 D8-3A1/CD3 IgG-scFv', so it is another molecule than m27
B15: CD3-tsm#7 (WT) scFv-Fc fusion (Fc fusion)
chain: B2 chain with R67K
notes: Wild type HuM291 VH; As for CD3-tsm#1: scFv g1 Fc fusion chain; also called wild type Hum291 scFv
B16: CD3-tsm#1 (M48I/K67R) scFv-Fc fusion (Fc fusion)
chain: B2 chain with M48I
notes: also called CD3 scFv-Fc fusion, VH variant M48I/K67R, tsm #1
B17: CD3-tsm#2 (I30V/K67R) scFv-Fc fusion (Fc fusion)
chain: B2 chain with I30V
notes: As for CD3-tsm#1: scFv g1 Fc fusion chain
B18: CD3-tsm#3 (M48I) scFv-Fc fusion (Fc fusion)
chain: B2 chain with M48I, R67K
notes: as for B17
B19: CD3-tsm#4 (I30V/M48I/K67R) scFv-Fc fusion (Fc fusion)
chain: B2 chain with I30V, M48I
notes: as for B17
B20: CD3-tsm#5 (K67R) scFv-Fc fusion (Fc fusion)
chain: B2 chain
notes: as for B17
B21: CD3-tsm#6 (I30V) scFv-Fc fusion (Fc fusion)
chain: B2 chain with I30V, R67K
notes: As for CD3-tsm#1: scFv g1 Fc fusion chain; also called CD3-tsm#6 ( (BOV))

What was measured:
[1] = molecular target: T1, CD3 antigen expressed on cells (human CD3 epsilon) (human, UniProt P07766 23-207); assay: flow cytometry on CD38(-) primary human T cells, mouse anti-human Fc-APC detection, GeoMean RL-H of singlets
T1 construct: also called cell surface CD3 antigen; CD3 on T cells

[2] = molecular target: T1, CD3 antigen expressed on cells (human …); assay: as above; remark: listed apart in the source
[3] = molecular target: T2, Recombinant human CD38-his tag (human, UniProt P28907 43-300); assay: SPR (Biacore T200), antibody as captured ligand, CD38 as sample, 1:1 binding model
T2 construct: also called recombinant CD38 antigen; CD38 antigen; not shown: his tag

[4] = molecular target: T1, CD3 antigen expressed on cells (human …); assay: flow cytometry on CD3-bearing cells (cell type not given)

Binder | Kd [3] | koff [3] | kon [3] | EC50 [4] | further results
B1 | – | – | – | – | EC50 (read off the curve) [1]: ~0.02 ng/mL; EC50 (read off the curve) [2]: ~0.008 ng/mL
B2 | – | – | – | – | EC50 (read off the curve) [2]: ~0.1 ng/mL
B3 | – | – | – | – | EC50 (read off the curve) [1]: ~1 ng/mL
B4 | – | – | – | – | EC50 (read off the curve) [1]: ~0.2 ng/mL
B5 | – | – | – | – | EC50 (read off the curve) [1]: ~0.1 ng/mL
B6 | – | – | – | – | EC50 (read off the curve) [2]: ~0.1 ng/mL
B7 | – | – | – | – | EC50 (read off the curve) [2]: ~0.2 ng/mL
B8 | 12.3 nM | 0.00637 s⁻¹ | 517000 M⁻¹ s⁻¹ | – | –
B9 | 1.51 nM | 0.00203 s⁻¹ | 1.35e+06 M⁻¹ s⁻¹ | – | EC50 (read off the curve) [1]: ~0.2 ng/mL
B10 | 4.95 nM | 0.00393 s⁻¹ | 794000 M⁻¹ s⁻¹ | – | –
B11 | 4.52 nM | 0.00388 s⁻¹ | 859000 M⁻¹ s⁻¹ | – | –
B12 | 6.55 nM | 0.00565 s⁻¹ | 862000 M⁻¹ s⁻¹ | – | –
B13 | 20.3 nM | 0.011 s⁻¹ | 541000 M⁻¹ s⁻¹ | – | –
B14 | 9.14 nM | 0.00372 s⁻¹ | 406000 M⁻¹ s⁻¹ | – | –
B15 | – | – | – | 200 ng/mL | –
B16 | – | – | – | 200 ng/mL | –
B17 | – | – | – | 1500 ng/mL | –
B18 | – | – | – | 200 ng/mL | –
B19 | – | – | – | 100 ng/mL | –
B20 | – | – | – | 100 ng/mL | –
B21 | – | – | – | 100 ng/mL | –
